pEC50: −log10 of the molar value.
Assays:
Experiment in all cases: radioligand binding
wild-type EGF receptor = wild-type EGF receptor (UniProt P00533)
R84K-EGF receptor = R84K-EGF receptor (UniProt P00533)
A265V-EGF receptor = A265V-EGF receptor (UniProt P00533)
G574V-EGF receptor = G574V-EGF receptor (UniProt P00533)

pEC50 (wild-type EGF receptor): 9.12 | pEC50 (R84K-EGF receptor): 10.44 | pEC50 (A265V-EGF receptor): 9.55 | pEC50 (G574V-EGF receptor): 9.77
Substance: 125I-EGF (ligand)
